Test results as given in patent publication US9040054B2.

Target: serum IgE of birch pollen allergic (Bet v 1 allergic) patients
Experiment: ELISA inhibition: BM4 as inhibitor in serial dilutions, Bet v 1a immobilized at 200 ng/well, 5 sera

B1: BM4 (protein)
chain: GVFNYETETTSVIPAARLFKAFILDGDNLFPKVAPQAISSVENIEGNGGPGTIKKISFPEGFPFKYVKDRVDEVDHTNFKYNYSVIEGGPIGDTLEKISNEIKIVATPSGSTIKSISNKYHTKGDHEVKAEQVKASKEMGETLLRAVESYLLAHSDAYN
- fold reduced patients' IgE binding capacity compared to Bet v 1a: 100 to 1000 fold
